Reference: patent publication US8143025B2, “Antibodies against vascular endothelial growth factor receptor-1” (ImClone LLC, priority 2004, dated 2012)

What was measured:
Assay in all cases: ELISA-based specificity assay (Example 2A)
Assay type in all cases: binding
[1] = molecular target: human VEGFR-2 alkaline phosphatase (Homo sapiens, UniProt P35968); conditions: FIG. 6C
Description: (§1) To determine the specificity of an anti-VEGFR-1 monoclonal antibody to human VEGFR-I, purified antibodies 18F1 were tested in an ELISA-based assay. One μg/ml of recombinant human VEGFR-I Fc, mouse VEGFR-I Fc, mouse VEGFR-2 Fe, or human VEGFR-2 alkaline phosphatase was coated with PBS in a 96-well microtiter plates at 4° C. over night. After wash, the receptor coated plates were blocked with PBS containing 5% Dry Milk and 0.05% Tween 20. Serial dilutions of primary antibody 18F1 to human VEGFR-I, MF1 to mouse VEGFR-I. ICl 1 to human VEGFR-2, or DClOl to mouse VEGFR-2 were incubated in the receptor-coated plates for 30 minutes. After wash secondary anti-primary HRP conjugate antibodies was incubated in the plates for 30 minutes. Plates were washed and incubated with the substrate TMB (3,3′,5,5′-tetra-methylbenzidine) for color development. The absorbance at 450 nm was read as OD values for quantification of binding activity of antibodies. Data were analyzed using a GraphPad Prism Software.

[2] = molecular target: mouse VEGFR-2 (Mus musculus, UniProt P35918); conditions: FIG. 6D
Description: as §1

[3] = molecular target: T1, mouse VEGFR-I Fc (Mus musculus, UniProt P35969); conditions: FIG. 6B
T1 sequence (P35969 23-759 limits assumed): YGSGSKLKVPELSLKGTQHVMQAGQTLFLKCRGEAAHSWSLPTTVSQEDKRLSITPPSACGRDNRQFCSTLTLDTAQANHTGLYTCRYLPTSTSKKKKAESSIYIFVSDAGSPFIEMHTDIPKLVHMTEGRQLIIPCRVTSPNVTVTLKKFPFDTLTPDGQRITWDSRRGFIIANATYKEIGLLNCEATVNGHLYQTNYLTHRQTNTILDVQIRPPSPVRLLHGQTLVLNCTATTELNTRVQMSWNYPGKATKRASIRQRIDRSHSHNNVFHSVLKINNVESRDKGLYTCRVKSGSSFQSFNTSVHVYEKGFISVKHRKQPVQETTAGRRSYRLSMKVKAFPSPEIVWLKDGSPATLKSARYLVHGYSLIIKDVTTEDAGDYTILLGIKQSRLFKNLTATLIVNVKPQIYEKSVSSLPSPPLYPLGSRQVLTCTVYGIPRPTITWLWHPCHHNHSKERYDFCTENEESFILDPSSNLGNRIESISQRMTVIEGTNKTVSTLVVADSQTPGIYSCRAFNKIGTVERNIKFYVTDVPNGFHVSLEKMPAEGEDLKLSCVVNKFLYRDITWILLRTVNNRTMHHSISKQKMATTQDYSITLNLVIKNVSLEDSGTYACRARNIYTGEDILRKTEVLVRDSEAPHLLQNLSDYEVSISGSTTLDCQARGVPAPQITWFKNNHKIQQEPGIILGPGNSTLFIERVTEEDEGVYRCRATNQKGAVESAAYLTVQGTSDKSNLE
Description: as §1

[4] = molecular target: T2, recombinant human VEGFR-I Fc (Homo sapiens, UniProt P17948); conditions: FIG. 6A
T2 construct: soluble recombinant VEGFR-I Fc (rhuVEGFR-1 Fc) proteins were purchased from (R&D Systems Inc); purchased R&D Systems Inc
Description: as §1

Sequence of human VEGFR-2 alkaline phosphatase (P35968 20-764 limits assumed): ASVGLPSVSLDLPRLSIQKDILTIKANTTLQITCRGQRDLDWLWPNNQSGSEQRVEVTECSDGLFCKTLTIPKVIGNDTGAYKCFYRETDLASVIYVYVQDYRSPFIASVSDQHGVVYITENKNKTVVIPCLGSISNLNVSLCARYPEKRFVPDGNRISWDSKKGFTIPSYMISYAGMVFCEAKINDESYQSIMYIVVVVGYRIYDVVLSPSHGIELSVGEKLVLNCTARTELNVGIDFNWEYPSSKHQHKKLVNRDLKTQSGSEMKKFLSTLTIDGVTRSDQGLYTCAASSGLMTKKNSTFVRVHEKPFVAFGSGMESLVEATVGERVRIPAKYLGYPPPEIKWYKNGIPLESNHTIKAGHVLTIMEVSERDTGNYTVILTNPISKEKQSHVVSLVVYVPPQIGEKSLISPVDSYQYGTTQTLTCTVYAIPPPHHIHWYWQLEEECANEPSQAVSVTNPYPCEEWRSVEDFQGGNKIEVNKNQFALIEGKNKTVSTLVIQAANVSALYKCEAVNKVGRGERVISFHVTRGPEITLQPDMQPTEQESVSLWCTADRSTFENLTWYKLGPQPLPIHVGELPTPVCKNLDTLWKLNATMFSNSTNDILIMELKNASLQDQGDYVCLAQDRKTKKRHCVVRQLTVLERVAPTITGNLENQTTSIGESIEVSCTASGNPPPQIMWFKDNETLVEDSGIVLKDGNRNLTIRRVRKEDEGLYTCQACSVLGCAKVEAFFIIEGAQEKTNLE
T2 sequence (P17948 27-758 limits assumed): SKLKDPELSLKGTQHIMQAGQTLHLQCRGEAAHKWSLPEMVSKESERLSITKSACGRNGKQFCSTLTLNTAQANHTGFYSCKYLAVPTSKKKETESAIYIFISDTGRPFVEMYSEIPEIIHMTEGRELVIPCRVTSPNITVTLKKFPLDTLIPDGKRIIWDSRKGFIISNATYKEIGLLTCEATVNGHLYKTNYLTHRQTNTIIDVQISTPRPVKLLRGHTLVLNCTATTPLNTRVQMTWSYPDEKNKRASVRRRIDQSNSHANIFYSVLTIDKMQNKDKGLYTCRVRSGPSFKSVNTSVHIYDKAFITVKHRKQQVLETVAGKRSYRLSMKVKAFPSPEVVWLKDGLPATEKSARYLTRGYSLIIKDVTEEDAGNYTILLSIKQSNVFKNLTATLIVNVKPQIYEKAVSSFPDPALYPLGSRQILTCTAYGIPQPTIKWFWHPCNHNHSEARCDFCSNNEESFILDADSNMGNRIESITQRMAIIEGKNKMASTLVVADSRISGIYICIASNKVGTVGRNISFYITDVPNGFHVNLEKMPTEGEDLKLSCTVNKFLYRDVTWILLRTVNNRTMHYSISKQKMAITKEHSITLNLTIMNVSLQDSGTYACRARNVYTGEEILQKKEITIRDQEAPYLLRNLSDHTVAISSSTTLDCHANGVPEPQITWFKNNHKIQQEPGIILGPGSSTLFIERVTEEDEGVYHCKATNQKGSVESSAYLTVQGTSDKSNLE
Sequence of mouse VEGFR-2 (P35918 20-762 limits assumed): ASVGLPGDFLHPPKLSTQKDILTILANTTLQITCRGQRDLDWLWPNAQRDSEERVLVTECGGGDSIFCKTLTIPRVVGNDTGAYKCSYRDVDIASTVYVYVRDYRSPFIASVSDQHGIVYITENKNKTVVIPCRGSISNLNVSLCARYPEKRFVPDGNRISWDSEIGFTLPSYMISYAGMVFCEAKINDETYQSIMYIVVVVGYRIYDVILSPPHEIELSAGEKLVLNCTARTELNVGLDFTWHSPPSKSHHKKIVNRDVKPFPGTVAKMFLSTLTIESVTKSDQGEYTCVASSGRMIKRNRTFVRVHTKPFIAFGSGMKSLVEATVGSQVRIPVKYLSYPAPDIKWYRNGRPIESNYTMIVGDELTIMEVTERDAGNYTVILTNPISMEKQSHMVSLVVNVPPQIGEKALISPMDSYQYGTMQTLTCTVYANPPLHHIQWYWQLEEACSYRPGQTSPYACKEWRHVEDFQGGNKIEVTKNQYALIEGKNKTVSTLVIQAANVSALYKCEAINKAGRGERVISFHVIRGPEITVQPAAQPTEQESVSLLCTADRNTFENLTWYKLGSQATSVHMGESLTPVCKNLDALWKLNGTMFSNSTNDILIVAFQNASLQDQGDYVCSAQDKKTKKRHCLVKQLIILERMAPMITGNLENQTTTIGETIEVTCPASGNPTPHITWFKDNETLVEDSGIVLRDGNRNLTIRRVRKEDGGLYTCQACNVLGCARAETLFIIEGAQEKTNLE

- cross reactivity with human VEGFR-2 [1]: no cross reactivity
- cross reactivity with mouse VEGFR-2 [2]: no cross reactivity
- cross reactivity with mouse VEGFR-I [3]: no cross reactivity
- binding specificity to human VEGFR-I [4]: binding of human VEGFR-I
Substance: 18F1: human anti-VEGFR-1 monoclonal antibody clone; VL SEQ ID NO: 16, VH SEQ ID NO: 20 [Clone 18F1]
